Source: patent publication US20230183373A1 (MINERVA BIOTECHNOLOGIES, published 2023)

B2: PSMGFR minus 10 amino acids from the C-terminus (peptide)
peptide: GTINVHDVETQFNQYKTEAASRYNLTISDVSVSDV
notes: also called C-10; C-10 PSMGFR

Experiments:
[1] = target: T1, PSMGFR minus 10 amino acids from the N-terminus; assay: selection screens (FIG. 3A-C cited)
T1 construct: also called N-10; N-10 PSMGFR
T1 peptide: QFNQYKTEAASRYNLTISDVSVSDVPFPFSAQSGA

[2] = target: T2, PSMGFR peptide (Primary Sequence of the MUC1 Growth Factor Receptor); assay: ELISA on immobilised PSMGFR (FIG. 2B)
T2 construct: Synthetic peptide; also called MUC1* peptide; MUC1* PSMGFR peptide
T2 peptide: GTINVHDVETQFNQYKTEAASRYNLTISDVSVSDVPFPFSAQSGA

NME7-AB = target: T3, NME7-AB (human, UniProt Q9Y5B8 92-376, limits assumed); assay: ELISA on immobilised C-10 peptide (FIG. 2A)
T3 construct: also called NM23-H7
T3 sequence: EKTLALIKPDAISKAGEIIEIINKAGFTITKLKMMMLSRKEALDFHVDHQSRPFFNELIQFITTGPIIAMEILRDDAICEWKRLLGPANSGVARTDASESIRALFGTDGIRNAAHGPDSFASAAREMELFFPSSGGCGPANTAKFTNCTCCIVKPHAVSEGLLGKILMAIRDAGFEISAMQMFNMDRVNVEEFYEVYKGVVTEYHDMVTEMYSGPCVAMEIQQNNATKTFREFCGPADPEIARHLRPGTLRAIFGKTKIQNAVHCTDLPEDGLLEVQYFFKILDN

dimeric NME1 = target: T4, dimeric NME1 (human, UniProt P15531 1-152, limits assumed); assay: ELISA on immobilised C-10 peptide (FIG. 2D)
T4 construct: Used in dimer form; also called NM23-H1 dimers; dimeric NM23-H1
T4 sequence (P15531 whole entry): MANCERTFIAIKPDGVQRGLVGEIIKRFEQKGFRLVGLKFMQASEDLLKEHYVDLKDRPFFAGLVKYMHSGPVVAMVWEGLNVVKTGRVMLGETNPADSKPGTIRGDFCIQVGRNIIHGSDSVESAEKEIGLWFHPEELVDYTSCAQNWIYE

[3] = target: T2, PSMGFR peptide (Primary Sequence of the …); assay: ELISA on immobilised PSMGFR, N-10 and C-10 (FIG. 22A)
[4] = target: B2; assay: ELISA on immobilised N-10 and C-10 peptides (FIG. 2E)
[5] = target: T2, PSMGFR peptide (Primary Sequence of the …); assay: ELISA on PSMGFR (FIG. 21A)
[6] = target: T2, PSMGFR peptide (Primary Sequence of the …); assay: ELISA, surface coated with PSMGFR peptide (FIG. 5)
[7] = target: T2, PSMGFR peptide (Primary Sequence of the …); assay: ELISA on immobilised PSMGFR (FIG. 2C)

B1: mouse monoclonal antibody MN-C2 (antibody, V domains shown)
VH: EVQLEESGGGLVKPGGSLKLSCAASGFTFSGYAMSWVRQTPEKRLEWVATISSGGTYIYYPDSVKGRFTISRDNAKNTLYLQMSSLRSEDTAMYYCARLGGDNYYEYFDVWGAGTTVTVSS
VL: DIVITQSTASLGVSLGQRATISCRASKSVSTSGYSYMHWYQQRPGQPPKLLIYLASNLESGVPARFSGSGSGTDFTLNIHPVEEEDAATYYCQHSRELPFTFGGGTKLEIKR
notes: Mouse monoclonal IgG; the printed entries run a few residues into the constant regions
Does B1 bind [1]?
Result: binds

Does B1 bind [2]?
Result: binds

Does B2 bind (NME7-AB)?
Result: no binding

Does B2 bind (dimeric NME1)?
Result: no binding

B3: mouse monoclonal antibody MN-C3 (antibody, V domains shown)
VH: QVQLQQSGPELVRPGVSVKISCKGSGYRFTDYAMNWVKQSHAKSLEWIGVISTFSGNTNFNQKFKGKATMTVDKSSSTAYMELARLTSEDSAMYYCARSDYYGPYFDYWGQGTTLTVSS
VL: DVLMTQTPLSLPVSLGDQASISCRSSQTIVHSNGNTYLEWYLQKPGQSPKLLIYKVSNRFSGVPDRFSGSGSGTDFTLKINRVEAEDLGVYYCFQGSHVPFTFGSGTKLEIK
notes: Mouse monoclonal IgG
Does B3 bind [3]?
Result: binds

Does B3 bind [4]?
Result: binds

B4: hu MN-E6 scFv-Fc-Y407R-hingeless (Fc fusion)
chain: AAQPAEVQLVESGGGLVKPGGSLRLSCAASGFTFSRYGMSWVRQAPGKRLEWVSTISGGGTYIYYPDSVKGRFTISRDNAKNTLYLQMNSLRAEDTAVYYCTRDNYGRNYDYGMDYWGQGTLVTVSSGGGGSGGGGSGGGGSEIVLTQSPATLSLSPGERATLTCSATSSVSYIHWYQQRPGQSPRLLIYSTSNLASGIPARFSGSGSGSDYTLTISSLEPEDFAVYYCQQRSSSPFTFGSGTKVEIKAPELLGGPSVFLFPPKPKDTLMISRTPEVTCVVVDVSHEDPEVKFNWYVDGVEVHNAKTKPREEQYNSTYRVVSVLTVLHQDWLNGKEYKCKVSNKALPAPIEKTISKAKGQPREPQVYTLPPSREEMTKNQVSLTCLVKGFYPSDIAVEWESNGQPENNYKTTPPVLDSDGSFFLRSKLTVDKSRWQQGNVFSCSVMHEALHNHYTQKSLSLSPGK
notes: The construct derives from the pSECTag2 E6 scFv-Fc, so it carries the leader and AAQPA before the scFv; also called MN-E6 scFv-Fc with deleted hinge and Y407R
Does B4 bind [5]?
Result: binds

B5: humanized MN-C2 scFv (scFv, V domains shown)
VH: EVQLVESGGGLVKPGGSLRLSCAASGFTFSGYAMSWVRQAPGKGLEWVSTISSGGTYIYYPDSVKGRFTISRDNAKNSLYLQMNSLRAEDTAVYYCARLGGDNYYEYFDVWGKGTTVTVSS
VL: DIVLTQSPASLAVSPGQRATITCRASKSVSTSGYSYMHWYQQKPGQPPKLLIYLASNLESGVPARFSGSGSGTDFTLTINPVEANDTANYYCQHSRELPFTFGGGTKVEIKR
notes: also called huMN-C2 scFv; hu MN-C2 scFv; not shown: Linker; which one was te; 6xHis tag (detected with Anti-Penta-His)
Which EC50 [6] does the source give for B5 here?
Its EC50 is roughly 333 nM.

B6: mouse monoclonal antibody MN-E6 (antibody, V domains shown)
VH: EVKVVESGGDLVKPGGSLKLSCVVSGFTFSRYGMSWVRQTPGKRLEWVATISGGGTYIYYPDSVKGRFTISRDNAKNTLYLQMSSLKSEDTAMYHCTRDNYGRNYDYGMDYWGQGTSVTVSS
VL: QIVLTQSPAIMSASPGEEVTLTCSATSSVSYIHWFQQRPGTSPKLWIYSTSNLASGVPVRFSGSGYGTSYSLTISRMEAEDAATYYCQQRSSSPFTFGSGTKLEIK
notes: Mouse monoclonal IgG; the constant regions are not; also called parent mouse MN-E6 antibody
What does the source list for B6?
binding result [1]: binds; binding result [7]: binds
